Reference: patent publication US4413056A, “Process for the preparation of penicillins and penicillin derivatives” (Beecham Group Limited, priority 1980, dated 1983)

B1: Protease type XI: Protease type XI Tritirachium album Proteinase K, supplier Sigma (protein, UniProt P06873 106-384, looked up)
Proteinase K: AAQTNAPWGLARISSTSPGTSTYYYDESAGQGSCVYVIDTGIEASHPEFEGRAQMVKTYYYSSRDGNGHGTHCAGTVGSRTYGVAKKTQLFGVKVLDDNGSGQYSTIIAGMDFVASDKNNRNCPKGVVASLSLGGGYSSSVNSAAARLQSSGVMVAVAAGNNNADARNYSPASEPSVCTVGASDRYDRRSSFSNYGSVLDIFGPGTSILSTWIGGSTRSISGTSMATPHVAGLAAYLMTLGKTTAASACRYIADTANKGDLSNIPFGTVNLLAYNNYQA
B2: Alcalase 1.5 M: Subtilisin A from B licheniformis, supplier Novo (protein, UniProt P00780 106-379, looked up)
Subtilisin Carlsberg: AQTVPYGIPLIKADKVQAQGFKGANVKVAVLDTGIQASHPDLNVVGGASFVAGEAYNTDGNGHGTHVAGTVAALDNTTGVLGVAPSVSLYAVKVLNSSGSGSYSGIVSGIEWATTNGMDVINMSLGGASGSTAMKQAVDNAYAKGVVVVAAAGNSGSSGNTNTIGYPAKYDSVIAVGAVDSNSNRASFSSVGAELEVMAPGAGVYSTYPTNTYATLNGTSMASPHVAGAAALILSKHPNLSASQVRNRLSSTATYLGSSFYYGKGLINVEAAAQ
B3: Proteinase D: Proteinase D (Subtilisin A) B licheniformis, supplier ABM (protein, UniProt P00780 106-379, looked up)
Subtilisin Carlsberg: AQTVPYGIPLIKADKVQAQGFKGANVKVAVLDTGIQASHPDLNVVGGASFVAGEAYNTDGNGHGTHVAGTVAALDNTTGVLGVAPSVSLYAVKVLNSSGSGSYSGIVSGIEWATTNGMDVINMSLGGASGSTAMKQAVDNAYAKGVVVVAAAGNSGSSGNTNTIGYPAKYDSVIAVGAVDSNSNRASFSSVGAELEVMAPGAGVYSTYPTNTYATLNGTSMASPHVAGAAALILSKHPNLSASQVRNRLSSTATYLGSSFYYGKGLINVEAAAQ
B4: Subtilisin A: Subtilisin A, B licheniformis, supplier Novo; alkaline microbial serine proteinase EC 3.4.21.14 (protein, UniProt P00780 106-379, looked up)
Subtilisin Carlsberg: AQTVPYGIPLIKADKVQAQGFKGANVKVAVLDTGIQASHPDLNVVGGASFVAGEAYNTDGNGHGTHVAGTVAALDNTTGVLGVAPSVSLYAVKVLNSSGSGSYSGIVSGIEWATTNGMDVINMSLGGASGSTAMKQAVDNAYAKGVVVVAAAGNSGSSGNTNTIGYPAKYDSVIAVGAVDSNSNRASFSSVGAELEVMAPGAGVYSTYPTNTYATLNGTSMASPHVAGAAALILSKHPNLSASQVRNRLSSTATYLGSSFYYGKGLINVEAAAQ
B5: Alcalase 0.6 L: Subtilisin A from B licheniformis, supplier Novo (protein, UniProt P00780 106-379, looked up)
Subtilisin Carlsberg: AQTVPYGIPLIKADKVQAQGFKGANVKVAVLDTGIQASHPDLNVVGGASFVAGEAYNTDGNGHGTHVAGTVAALDNTTGVLGVAPSVSLYAVKVLNSSGSGSYSGIVSGIEWATTNGMDVINMSLGGASGSTAMKQAVDNAYAKGVVVVAAAGNSGSSGNTNTIGYPAKYDSVIAVGAVDSNSNRASFSSVGAELEVMAPGAGVYSTYPTNTYATLNGTSMASPHVAGAAALILSKHPNLSASQVRNRLSSTATYLGSSFYYGKGLINVEAAAQ
B6: Protease Bacterial: Protease Bacterial (Subtilisin A) B Sublitisin, supplier CP (protein, UniProt P00780 106-379, looked up)
Subtilisin Carlsberg: AQTVPYGIPLIKADKVQAQGFKGANVKVAVLDTGIQASHPDLNVVGGASFVAGEAYNTDGNGHGTHVAGTVAALDNTTGVLGVAPSVSLYAVKVLNSSGSGSYSGIVSGIEWATTNGMDVINMSLGGASGSTAMKQAVDNAYAKGVVVVAAAGNSGSSGNTNTIGYPAKYDSVIAVGAVDSNSNRASFSSVGAELEVMAPGAGVYSTYPTNTYATLNGTSMASPHVAGAAALILSKHPNLSASQVRNRLSSTATYLGSSFYYGKGLINVEAAAQ
B7: Protease type VIII: Protease type VIII B subtilis, Subtilisin Carlsberg; Subtilopeptidase A, supplier Sigma (protein, UniProt P00780 106-379, looked up)
Subtilisin Carlsberg: AQTVPYGIPLIKADKVQAQGFKGANVKVAVLDTGIQASHPDLNVVGGASFVAGEAYNTDGNGHGTHVAGTVAALDNTTGVLGVAPSVSLYAVKVLNSSGSGSYSGIVSGIEWATTNGMDVINMSLGGASGSTAMKQAVDNAYAKGVVVVAAAGNSGSSGNTNTIGYPAKYDSVIAVGAVDSNSNRASFSSVGAELEVMAPGAGVYSTYPTNTYATLNGTSMASPHVAGAAALILSKHPNLSASQVRNRLSSTATYLGSSFYYGKGLINVEAAAQ
B8: Protease type VII: Protease type VII B amyloliquefaciens, Nagarase; Subtilisin BPN, supplier Sigma (protein, UniProt P00782 108-382, looked up)
Subtilisin BPN': AQSVPYGVSQIKAPALHSQGYTGSNVKVAVIDSGIDSSHPDLKVAGGASMVPSETNPFQDNNSHGTHVAGTVAALNNSIGVLGVAPSASLYAVKVLGADGSGQYSWIINGIEWAIANNMDVINMSLGGPSGSAALKAAVDKAVASGVVVVAAAGNEGTSGSSSTVGYPGKYPSVIAVGAVDSSNQRASFSSVGPELDVMAPGVSIQSTLPGNKYGAYNGTSMASPHVAGAAALILSKHPNWTNTQVRSSLENTTTKLGDSFYYGKGLINVQAAAQ

Experiment: De-esterification of the penicillin C3 benzyl ester by a number of enzymes, ester disappearance assayed by HPLC
Assay type: biochemical
Conditions: enzyme solution 0.2 ml (5 mg/ml) plus ester solution 2 ml, phosphate buffer pH 7.8, 37° C., 16 hours
Description: In order to determine the amount of hydrolysis of the benzyl ester of the C3 carboxyl group by a number of enzymes, the ester was subjected, in aqueous reaction mixture, to the action of the particular enzyme using the following procedure and assay procedure.
Ester solution--Ester (50 mg) was added slowly to stirred 0.25 M, pH 7.8 phosphate buffer (1 ml). When the ester was dissolved distilled water (9 ml) was added.
Enzyme solution--Enzyme (5 mg) was dissolved in distilled water (1 ml).
Enzymation--Enzyme solution (0.2 ml) was added to ester solution (2 ml) and the mixture was incubated at 37° C. for 16 hours.
Assay--When the incubation was complete, the reaction mixture was filtered through glass fibre (Whatman GF/A) and assayed for disappearance of the ester by HPLC.
Extent of conversion of ester to acid is determined as follows: [formula]
In table 1 the extent of conversion of ester to acid is shown for a number of samples of the enzyme of the present invention.
In the case of B1, the “Conversion (percentage conversion of the ester to 6[2(2-carboxy)-2-thien-3ylacetamid 6methoxy] penicillin)” value is reported as 61.0%.
With B2 the “Conversion (percentage conversion of the ester to 6[2(2-carboxy)-2-thien-3ylacetamid 6methoxy] penicillin)” value was 88.6%.
For B3, the “Conversion (percentage conversion of the ester to 6[2(2-carboxy)-2-thien-3ylacetamid 6methoxy] penicillin)” value was 100.0%.
With B4 the “Conversion (percentage conversion of the ester to 6[2(2-carboxy)-2-thien-3ylacetamid 6methoxy] penicillin)” value was 88.8%.
In the case of B5, the “Conversion (percentage conversion of the ester to 6[2(2-carboxy)-2-thien-3ylacetamid 6methoxy] penicillin)” value is reported as 88.0%.
With B6 the “Conversion (percentage conversion of the ester to 6[2(2-carboxy)-2-thien-3ylacetamid 6methoxy] penicillin)” value was 91.7%.
For B7, the “Conversion (percentage conversion of the ester to 6[2(2-carboxy)-2-thien-3ylacetamid 6methoxy] penicillin)” value was 89.0%.
In the case of B8, the “Conversion (percentage conversion of the ester to 6[2(2-carboxy)-2-thien-3ylacetamid 6methoxy] penicillin)” value is reported as 78.0%.

Experiment: De-esterification of the benzyl ester using subtilisin A at controlled pH, ester and acid assayed by HPLC
Assay type: biochemical
Conditions: after 4 hours reaction, 37° C., pH 7.5, subtilisin A 28.16 mg
Description: Benzyl 6β-[2-(2-carboxy)-2-thien-3'-ylacetamido 6α-methoxy]penicillanate (0.825 g) was dissolved by adding slowly to stirred 0.25 M, pH 7.8 phosphate buffer (8 ml).
Subtilisin A (28.16 mg) was dissolved in distilled water (10 ml).
Ester solution (3 ml) was added to distilled water (7 ml) and heated to 37° C. in a stirred, water jacketed glass vessel (60 ml) and the pH adjusted to 7.5 by the addition of 1 M NaOH. Subtilisin A solution (10 ml) was heated to 37° C. and added to the ester. The mixture was stirred, the temperature maintained at 37° C. and the pH maintained at 7.5 by the addition of 0.1 M sodium hydroxide.
Samples were removed at appropriate intervals and assayed for ester and acid using the two HPLC systems described in Example 1.
In the case of B4, the “conversion of ester to acid” value is reported as 88%.
